{"source": "the Human Domainome abundance scans (Beltran et al. 2025)", "parents": {"B1": {"name": "WW domain-containing transcription regulator protein 1, residues 116 to 162; numbered along this chain, Q9GZV5 (parent)", "chain": "QSYDVTDELPLPPGWEMTFTATGQRYFLNHIEKITTWQDPRKAMNQP"}}, "note": "± gives the uncertainty stated by the source."}
{"variants_of": "B1", "assay": "abundance fitness (aPCA) (normalised: wild type 0, dead -1); higher = more abundant; growth selection in yeast, the domain comes from the species named", "details": "Homo sapiens"}
{"variant": "E32Y", "abundance fitness": "0.054 ± 0.049"}
{"variant": "E32T", "abundance fitness": "-0.017 ± 0.033"}
{"variant": "E32C", "abundance fitness": "-0.053 ± 0.035"}
{"variant": "E32P", "abundance fitness": "-0.805 ± 0.045"}
{"variant": "E32A", "abundance fitness": "0.028 ± 0.025"}
{"variant": "E32D", "abundance fitness": "-0.072 ± 0.045"}
{"variant": "E32S", "abundance fitness": "-0.02 ± 0.025"}
{"variant": "E32G", "abundance fitness": "-0.091 ± 0.025"}
{"variant": "E32H", "abundance fitness": "-0.05 ± 0.048"}
{"variant": "Q46W", "abundance fitness": "-0.046 ± 0.041"}
{"variant": "Q46I", "abundance fitness": "-0.044 ± 0.063"}
{"variant": "Q46E", "abundance fitness": "0.037 ± 0.032"}
{"variant": "Q46Y", "abundance fitness": "-0.221 ± 0.061"}
{"variant": "Q46R", "abundance fitness": "-0.156 ± 0.035"}
{"variant": "Q46F", "abundance fitness": "0.04 ± 0.025"}
{"variant": "Q46H", "abundance fitness": "-0.394 ± 0.063"}
{"variant": "Y26V", "abundance fitness": "-0.322 ± 0.039"}
{"variant": "Y26K", "abundance fitness": "-0.506 ± 0.051"}
{"variant": "Y26H", "abundance fitness": "-0.387 ± 0.071"}
{"variant": "Y26T", "abundance fitness": "-0.409 ± 0.05"}
{"variant": "Y26I", "abundance fitness": "-0.409 ± 0.074"}
{"variant": "Y26G", "abundance fitness": "-0.661 ± 0.047"}
{"variant": "Y26D", "abundance fitness": "-0.739 ± 0.085"}
{"variant": "L28H", "abundance fitness": "-0.55 ± 0.099"}
{"variant": "L28A", "abundance fitness": "-0.143 ± 0.043"}
{"variant": "L28S", "abundance fitness": "-0.205 ± 0.043"}
{"variant": "L28F", "abundance fitness": "-0.335 ± 0.074"}
{"variant": "L28D", "abundance fitness": "-0.909 ± 0.15"}
{"variant": "L28K", "abundance fitness": "0.128 ± 0.067"}
{"variant": "L28G", "abundance fitness": "-0.583 ± 0.041"}
{"variant": "A43W", "abundance fitness": "0.086 ± 0.048"}
{"variant": "A43N", "abundance fitness": "0.046 ± 0.056"}
{"variant": "A43V", "abundance fitness": "-0.025 ± 0.039"}
{"variant": "A43P", "abundance fitness": "-0.014 ± 0.031"}
{"variant": "A43F", "abundance fitness": "-0.016 ± 0.054"}
{"variant": "K42P", "abundance fitness": "-0.161 ± 0.033"}
{"variant": "K42A", "abundance fitness": "-0.113 ± 0.03"}
{"variant": "K42W", "abundance fitness": "-0.304 ± 0.053"}
{"variant": "K42T", "abundance fitness": "-0.073 ± 0.042"}
{"variant": "K42M", "abundance fitness": "-0.202 ± 0.051"}
{"variant": "K42L", "abundance fitness": "-0.111 ± 0.034"}
{"variant": "K42E", "abundance fitness": "-0.052 ± 0.044"}
{"variant": "K42H", "abundance fitness": "-0.061 ± 0.057"}
{"variant": "K42V", "abundance fitness": "-0.166 ± 0.045"}
{"variant": "A21M", "abundance fitness": "-0.079 ± 0.051"}
{"variant": "A21P", "abundance fitness": "-0.088 ± 0.05"}
{"variant": "A21H", "abundance fitness": "-0.108 ± 0.058"}
{"variant": "A21E", "abundance fitness": "-0.002 ± 0.036"}
{"variant": "A21K", "abundance fitness": "-0.019 ± 0.033"}
{"variant": "A21Q", "abundance fitness": "-0.272 ± 0.06"}
{"variant": "A21S", "abundance fitness": "-0.014 ± 0.028"}
{"variant": "P10L", "abundance fitness": "-0.25 ± 0.024"}
{"variant": "P10T", "abundance fitness": "-0.045 ± 0.035"}
{"variant": "P10S", "abundance fitness": "-0.109 ± 0.025"}
{"variant": "P10N", "abundance fitness": "-0.129 ± 0.032"}
{"variant": "P10Y", "abundance fitness": "-0.351 ± 0.042"}
{"variant": "P10C", "abundance fitness": "-0.374 ± 0.044"}
{"variant": "P10H", "abundance fitness": "-0.181 ± 0.053"}
{"variant": "P10A", "abundance fitness": "-0.088 ± 0.027"}
{"variant": "P10I", "abundance fitness": "-0.174 ± 0.03"}
{"variant": "G23R", "abundance fitness": "-0.369 ± 0.029"}
{"variant": "G23L", "abundance fitness": "-1.07 ± 0.098"}
{"variant": "G23C", "abundance fitness": "-0.79 ± 0.031"}
{"variant": "G23D", "abundance fitness": "-0.361 ± 0.048"}
{"variant": "G23H", "abundance fitness": "-0.476 ± 0.064"}
{"variant": "G23Q", "abundance fitness": "-0.469 ± 0.059"}
{"variant": "G23T", "abundance fitness": "-0.918 ± 0.073"}
{"variant": "G23S", "abundance fitness": "-0.565 ± 0.032"}
{"variant": "G23K", "abundance fitness": "-0.412 ± 0.061"}
{"variant": "W37S", "abundance fitness": "-0.324 ± 0.029"}
{"variant": "W37L", "abundance fitness": "-0.296 ± 0.026"}
{"variant": "W37V", "abundance fitness": "-0.348 ± 0.034"}
{"variant": "W37P", "abundance fitness": "-0.51 ± 0.044"}
{"variant": "W37C", "abundance fitness": "-0.52 ± 0.065"}
{"variant": "W37M", "abundance fitness": "-0.265 ± 0.041"}
{"variant": "W37A", "abundance fitness": "-0.376 ± 0.028"}
{"variant": "Y3L", "abundance fitness": "-0.323 ± 0.48"}
{"variant": "Y3V", "abundance fitness": "-0.472 ± 0.48"}
{"variant": "Y3P", "abundance fitness": "0.087 ± 0.28"}
{"variant": "W15E", "abundance fitness": "-0.689 ± 0.076"}
{"variant": "W15V", "abundance fitness": "-0.69 ± 0.054"}
{"variant": "W15Q", "abundance fitness": "-0.5 ± 0.071"}
{"variant": "W15K", "abundance fitness": "-0.784 ± 0.076"}
{"variant": "W15M", "abundance fitness": "-0.695 ± 0.039"}
{"variant": "W15C", "abundance fitness": "-0.627 ± 0.03"}
{"variant": "W15F", "abundance fitness": "-0.311 ± 0.055"}
{"variant": "W15P", "abundance fitness": "-1.09 ± 0.15"}
{"variant": "R25Y", "abundance fitness": "-0.246 ± 0.065"}
{"variant": "R25F", "abundance fitness": "-0.451 ± 0.073"}
{"variant": "R25N", "abundance fitness": "-0.448 ± 0.074"}
{"variant": "R25S", "abundance fitness": "-0.203 ± 0.04"}
{"variant": "R25Q", "abundance fitness": "-0.116 ± 0.033"}
{"variant": "R25T", "abundance fitness": "-0.295 ± 0.051"}
{"variant": "R25W", "abundance fitness": "-0.64 ± 0.031"}
{"variant": "R25G", "abundance fitness": "-0.37 ± 0.03"}
{"variant": "R25H", "abundance fitness": "-0.385 ± 0.069"}
{"variant": "D39T", "abundance fitness": "-0.761 ± 0.047"}
{"variant": "D39I", "abundance fitness": "-0.469 ± 0.051"}
{"variant": "D39Q", "abundance fitness": "-0.911 ± 0.16"}
{"variant": "D39E", "abundance fitness": "-0.536 ± 0.077"}
{"variant": "D39H", "abundance fitness": "-0.202 ± 0.055"}
{"variant": "D39S", "abundance fitness": "-0.719 ± 0.035"}
{"variant": "D39Y", "abundance fitness": "-0.709 ± 0.068"}
{"variant": "T18M", "abundance fitness": "-0.056 ± 0.046"}
{"variant": "T18P", "abundance fitness": "-0.85 ± 0.081"}
{"variant": "T18Q", "abundance fitness": "0.045 ± 0.051"}
{"variant": "T18L", "abundance fitness": "-0.047 ± 0.037"}
{"variant": "T18D", "abundance fitness": "-0.018 ± 0.034"}
{"variant": "T18G", "abundance fitness": "0.018 ± 0.028"}
{"variant": "E8I", "abundance fitness": "-0.274 ± 0.087"}
{"variant": "E8G", "abundance fitness": "-0.07 ± 0.03"}
{"variant": "E8M", "abundance fitness": "0.065 ± 0.055"}
{"variant": "E8F", "abundance fitness": "-0.302 ± 0.066"}
{"variant": "E8D", "abundance fitness": "-0.084 ± 0.056"}
{"variant": "E8S", "abundance fitness": "-0.071 ± 0.039"}
{"variant": "E8R", "abundance fitness": "-0.109 ± 0.04"}
{"variant": "E8K", "abundance fitness": "-0.005 ± 0.041"}
{"variant": "S2I", "abundance fitness": "-0.026 ± 0.071"}
{"variant": "S2D", "abundance fitness": "0.057 ± 0.03"}
{"variant": "S2K", "abundance fitness": "-0.074 ± 0.065"}
{"variant": "S2P", "abundance fitness": "-0.45 ± 0.066"}
{"variant": "S2N", "abundance fitness": "0.361 ± 0.081"}
{"variant": "S2V", "abundance fitness": "-0.148 ± 0.044"}
{"variant": "Q38K", "abundance fitness": "-0.037 ± 0.035"}
{"variant": "Q38T", "abundance fitness": "-0.095 ± 0.031"}
{"variant": "Q38C", "abundance fitness": "-0.085 ± 0.025"}
{"variant": "Q38F", "abundance fitness": "-0.086 ± 0.042"}
{"variant": "Q38A", "abundance fitness": "-0.103 ± 0.032"}
{"variant": "Q38H", "abundance fitness": "-0.096 ± 0.048"}
{"variant": "Q38R", "abundance fitness": "-0.017 ± 0.023"}
{"variant": "Q38D", "abundance fitness": "-0.129 ± 0.033"}
{"variant": "P12G", "abundance fitness": "-0.49 ± 0.041"}
{"variant": "P12A", "abundance fitness": "-0.467 ± 0.041"}
{"variant": "P12D", "abundance fitness": "-0.604 ± 0.058"}
{"variant": "P12C", "abundance fitness": "-0.716 ± 0.083"}
{"variant": "P12R", "abundance fitness": "-0.692 ± 0.045"}
{"variant": "P12N", "abundance fitness": "-0.556 ± 0.083"}
{"variant": "P12I", "abundance fitness": "-0.873 ± 0.2"}
{"variant": "P12F", "abundance fitness": "-0.997 ± 0.15"}
{"variant": "P12T", "abundance fitness": "-0.758 ± 0.076"}
{"variant": "P12W", "abundance fitness": "-0.826 ± 0.073"}
{"variant": "P12Q", "abundance fitness": "-0.494 ± 0.12"}
{"variant": "Q1M", "abundance fitness": "0.26 ± 0.1"}
{"variant": "Q1T", "abundance fitness": "-0.492 ± 0.18"}
{"variant": "E16D", "abundance fitness": "-0.039 ± 0.05"}
{"variant": "E16I", "abundance fitness": "-0.266 ± 0.028"}
{"variant": "E16A", "abundance fitness": "-0.217 ± 0.047"}
{"variant": "E16W", "abundance fitness": "-0.389 ± 0.06"}
{"variant": "E16G", "abundance fitness": "-0.22 ± 0.03"}
{"variant": "E16V", "abundance fitness": "-0.193 ± 0.027"}
{"variant": "E16T", "abundance fitness": "-0.215 ± 0.037"}
{"variant": "K33L", "abundance fitness": "-0.558 ± 0.028"}
{"variant": "K33H", "abundance fitness": "-0.2 ± 0.04"}
{"variant": "K33N", "abundance fitness": "-0.041 ± 0.027"}
{"variant": "K33D", "abundance fitness": "-0.517 ± 0.03"}
{"variant": "K33V", "abundance fitness": "-0.905 ± 0.03"}
{"variant": "K33Y", "abundance fitness": "-0.733 ± 0.084"}
{"variant": "L9V", "abundance fitness": "0.05 ± 0.034"}
{"variant": "L9Y", "abundance fitness": "-0.035 ± 0.037"}
{"variant": "L9R", "abundance fitness": "0.027 ± 0.029"}
{"variant": "L9A", "abundance fitness": "0.044 ± 0.039"}
{"variant": "L9T", "abundance fitness": "0.117 ± 0.045"}
{"variant": "L9W", "abundance fitness": "-0.087 ± 0.032"}
{"variant": "L9G", "abundance fitness": "-0.027 ± 0.03"}
{"variant": "L9D", "abundance fitness": "0.028 ± 0.025"}
{"variant": "L9H", "abundance fitness": "-0.043 ± 0.049"}
{"variant": "L9F", "abundance fitness": "-0.082 ± 0.041"}
